Each block holds one molecule with its values, some of them ahead of it.
How the values were obtained:
Assay in all cases: SPR
[1] = target: C-propeptide trimer of human procollagen III (CPIII) (human) (UniProt P02461)
CPIII-His (human) = CPIII-His (human) (UniProt P02461)
[2] = target: mini-procollagen III N306Q (human)

KD(1) (heterogeneous ligand model, site 1) [1]: 4.6 nM
KD(2) (heterogeneous ligand model, site 2) [1]: 28 nM
KD(1) (heterogeneous ligand model, site 1) (CPIII-His (human)): 12.8 nM
KD(2) (heterogeneous ligand model, site 2) (CPIII-His (human)): 27 nM
KD(1) (heterogeneous ligand model, site 1) [2]: 0.74 nM
KD(2) (heterogeneous ligand model, site 2) [2]: 12.6 nM
Molecule: CUB1-CUB2 (minimal active fragment of PCPE-1) (domain or fragment)

KD(1) (heterogeneous ligand model, site 1) [1]: 4.7 nM
KD(2) (heterogeneous ligand model, site 2) [1]: 17 nM
KD(1) (heterogeneous ligand model, site 1) (CPIII-His (human)): 5.9 nM
KD(2) (heterogeneous ligand model, site 2) (CPIII-His (human)): 15 nM
KD(1) (heterogeneous ligand model, site 1) [2]: 0.66 nM
KD(2) (heterogeneous ligand model, site 2) [2]: 10 nM
B1: procollagen C-proteinase enhancer-1 (PCPE-1) (natural protein)
chain: QTPNYTRPVFLCGGDVKGESGYVASEGFPNLYPPNKECIWTITVPEGQTVSLSFRVFDLELHPACRYDALEVFAGSGTSGQRLGRFCGTFRPAPLVAPGNQVTLRMTTDEGTGGRGFLLWYSGRATSGTEHQFCGGRLEKAQGTLTTPNWPESDYPPGISCSWHIIAPPDQVIALTFEKFDLEPDTYCRYDSVSVFNGAVSDDSRRLGKFCGDAVPGSISSEGNELLVQFVSDLSVTADGFSASYKTLPRGTAKEGQGPGPKRGTEPKVKLPPKSQPPEKTEESPSAPDAPTCPKQCRRTGTLQSNFCASSLVVTATVKSMVREPGEGLAVTVSLIGAYKTGGLDLPSPPTGASLKFYVPCKQCPPMKKGVSYLLMGQVEENRGPVLPPESFVVLHRPNQDQILTNLSKRKCPSQPVRAAASQD
